This experiment addresses chicken MHF complex (MHF1/MHF2 heterotetramer) (chicken) (UniProt E1BSW7). Briefly: native gel or EMSA; 2 mg/ml FANCM–MHF or MHF mixed 1:1 with 10 mM Tris–HCl pH 8 or 10–60% MPD, 20°C for 60 min; 6% polyacrylamide TBE gel, 0.5x TBE, 4°C; bands cut out and analysed by SDS–PAGE; at 30% MPD a smeared band at the position of MHF. (In general: In EMSA bound probe runs differently from free probe, usually more slowly.)

Consider one substance from publication PMC7805551.

“chicken FANCM (MHF interaction region, amino acids 660–804) (from UniProt A0A1D5PRR9 660-804) (domain or fragment)” yielded a percent of MHF without FANCM of 3%.
